From publication PMC7338525, “Insights into the structure and function of Est3 from the Hansenula polymorpha telomerase”

Target: T1, HpEst3 (Hansenula polymorpha, UniProt W1QJK4 1-175)
T1 sequence: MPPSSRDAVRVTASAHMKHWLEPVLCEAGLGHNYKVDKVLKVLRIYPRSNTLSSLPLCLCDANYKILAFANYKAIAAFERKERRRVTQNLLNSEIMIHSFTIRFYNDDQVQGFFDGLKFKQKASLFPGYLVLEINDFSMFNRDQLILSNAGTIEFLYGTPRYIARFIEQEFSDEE
Assay: NMR titration (15N-HpEst3); Est3:DNA up to 1:5; non-specific binding, signal broadening without shift changes; NMR: 100 mM KCl, 20 mM potassium phosphate pH 6.5, 0.02% NaN3, 3 mM DTT, 25 C; EMSA: 20 mM potassium phosphate pH 6.5, 100 mM KCl, 3 mM DTT, 8% native PAGE
Details: protein: recombinant

GGGTGGCGGGGTGGCGGGGTGGCGGGGTGGCG (ssDNA) [ssDNA G4 (four telomeric repeats)]
binding result: binds
